Literature values in article PMC4431351.

Biological target: MUC1 tandem-repeat synthetic peptide (UniProt P15941)
Conditions: Probe assembled in 5 mM sodium phosphate pH 7.4, then PBS (10 mM sodium phosphate, 140 mM NaCl, 2.70 mM KCl, pH 7.6), room temperature; cell incubation details …

Sequence of UniProt P15941 (P15941 whole entry): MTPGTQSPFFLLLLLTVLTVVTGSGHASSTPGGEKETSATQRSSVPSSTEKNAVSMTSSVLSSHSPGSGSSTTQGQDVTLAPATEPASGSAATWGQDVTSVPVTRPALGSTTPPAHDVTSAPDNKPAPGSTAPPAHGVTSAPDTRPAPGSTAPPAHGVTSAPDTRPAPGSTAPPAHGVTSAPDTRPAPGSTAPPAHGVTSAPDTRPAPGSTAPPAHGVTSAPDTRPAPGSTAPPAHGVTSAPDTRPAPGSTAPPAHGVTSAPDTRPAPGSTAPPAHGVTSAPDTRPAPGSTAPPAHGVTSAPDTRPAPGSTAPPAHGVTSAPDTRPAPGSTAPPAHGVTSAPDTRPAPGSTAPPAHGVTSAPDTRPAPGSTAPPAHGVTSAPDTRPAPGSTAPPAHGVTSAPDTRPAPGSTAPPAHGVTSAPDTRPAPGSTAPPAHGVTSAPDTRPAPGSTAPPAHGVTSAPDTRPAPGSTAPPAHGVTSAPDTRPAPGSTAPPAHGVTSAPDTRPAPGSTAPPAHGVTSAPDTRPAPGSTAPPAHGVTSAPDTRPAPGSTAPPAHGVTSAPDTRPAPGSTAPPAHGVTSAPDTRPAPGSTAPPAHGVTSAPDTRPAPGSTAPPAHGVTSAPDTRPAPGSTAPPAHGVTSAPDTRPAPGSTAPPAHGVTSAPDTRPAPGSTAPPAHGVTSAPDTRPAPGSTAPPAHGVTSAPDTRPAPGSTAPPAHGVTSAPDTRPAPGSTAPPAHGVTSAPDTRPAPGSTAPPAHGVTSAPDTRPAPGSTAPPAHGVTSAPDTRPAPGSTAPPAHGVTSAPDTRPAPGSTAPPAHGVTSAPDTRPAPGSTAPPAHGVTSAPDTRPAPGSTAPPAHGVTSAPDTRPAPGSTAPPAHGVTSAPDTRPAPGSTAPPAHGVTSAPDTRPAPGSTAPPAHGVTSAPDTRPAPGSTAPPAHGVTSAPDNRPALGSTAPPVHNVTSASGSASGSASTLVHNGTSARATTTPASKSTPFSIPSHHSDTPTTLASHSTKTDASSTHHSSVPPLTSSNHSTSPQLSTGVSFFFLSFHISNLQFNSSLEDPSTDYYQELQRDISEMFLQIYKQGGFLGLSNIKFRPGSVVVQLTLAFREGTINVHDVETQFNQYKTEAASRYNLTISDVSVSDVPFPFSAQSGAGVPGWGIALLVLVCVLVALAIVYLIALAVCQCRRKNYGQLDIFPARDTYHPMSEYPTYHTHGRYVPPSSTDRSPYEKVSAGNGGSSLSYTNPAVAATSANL

Q: Which Kd does the source give for “GCAGTTGATCCTTTGGATACCCTGG [AptMUC1 (25-mer)]” here?
A: 0.1 nM
